Test results as given in patent US20140287989A1 (CENTRE NATIONAL DE LA RECHERCHE SCIENTIFIQUE, published 2014).
Values joined by “and” are separate entries in the source; they are usually repeats but may differ in a detail not shown here. Equal values may be shown once. Square brackets hold non-standard residues; d marks the D form. Phe(3,4-Cl2) = N[C@@H](Cc1ccc(Cl)c(Cl)c1)C(=O)O; Phe(4-Br) = N[C@@H](Cc1ccc(Br)cc1)C(=O)O; Phe(4-Cl) = N[C@@H](Cc1ccc(Cl)cc1)C(=O)O; Phe(4-Me) = Cc1ccc(C[C@H](N)C(=O)O)cc1; hCha = N[C@@H](CCC1CCCCC1)C(=O)O; Cha = N[C@@H](CC1CCCCC1)C(=O)O

Tests used:
[1] = target: E. coli β clamp (β subunit of DNA polymerase III, dnaN gene product), N-tagged (E. coli) (UniProt P0A988)
[2] = target: E. coli β clamp (β subunit of DNA polymerase III, dnaN gene product), N-tagged (E. coli) (UniProt P0A988); assay: ITC, peptide 400 µM into β ring 20 or 30 µM, 25° C
[3] = target: E. coli β clamp (β subunit of DNA polymerase III, dnaN gene product) (E. coli) (UniProt P0A988); assay: SPR competition: peptide with β ring injected on immobilized P1
[4] = target: E. coli β clamp (β subunit of DNA polymerase III, dnaN gene product), N-tagged (E. coli) (UniProt P0A988); assay: SPR competition against P1
[5] = target: E. coli β clamp (β subunit of DNA polymerase III, dnaN gene product) (E. coli) (UniProt P0A988); assay: SPR competition, concentration of peptide that challenges 50% of the binding of β ring to P1
[6] = target: E. coli β clamp (β subunit of DNA polymerase III, dnaN gene product), N-tagged (E. coli) (UniProt P0A988); assay: SPR competition against P1, ratio of IC50 values; written as printed, the two labels seem exchanged against Table 14 and paragraph 151
[7] = target: E. coli β clamp (β subunit of DNA polymerase III, dnaN gene product), N-tagged (E. coli) (UniProt P0A988); assay: SPR competition (Biacore 3000): β ring 0.25 µM mixed with the challenger, injected on immobilised P1
[8] = target: E. coli β clamp (β subunit of DNA polymerase III, dnaN gene product), N-tagged (E. coli) (UniProt P0A988); assay: SPR competition on immobilised P1
[9] = target: E. coli β clamp (β subunit of DNA polymerase III, dnaN gene product), N-tagged (E. coli) (UniProt P0A988); assay: SPR competition on immobilised P1; ΔG = -RT ln Ki
[10] = target: T1, E. coli β clamp (β subunit of DNA polymerase III, dnaN gene product), N-tagged (E. coli, UniProt P0A988 1-366); assay: SPR competition on immobilised P1; ΔG = -RT ln Ki
T1 construct: The dnaN gene was cloned in pET15b and expressed in BL21 E. coli; also called β ring; β protein; not shown: N-terminal tag from the pET15b vector (N-tagged protein, enriched on Ni-NTA)

[11] = target: T2, E. coli β clamp (β subunit of DNA polymerase III, dnaN gene product) (E. coli, UniProt P0A988 1-366); assay: SPR competition, β ring on immobilised P1
T2 construct: Expressed in BL21 E. coli from pET15b with an N-terminal tag; also called β ring; β protein; not shown: N-terminal tag from plasmid pET15b ('N-tagged protein', purified on Ni-NTA)

[12] = target: T2, E. coli β clamp (β subunit of DNA …); assay: ITC, peptide 400 µM into β ring 30 µM, 25 °C
[13] = target: T2, E. coli β clamp (β subunit of DNA …); assay: ITC, peptide 400 µM into β ring 30 µM, 25 °C, second experiment
[14] = target: T3, E. coli β clamp (β subunit of DNA polymerase III, dnaN gene product) (E. coli, UniProt P0A988 1-366); assay: SPR competition; ΔG = -RT ln Ki
T3 construct: Homodimeric ring; N-tagged protein expressed in BL21 E. coli and purified on Ni-NTA and MonoQ; also called β ring; β protein; not shown: N-terminal tag from the pET15b plasmid

[15] = target: T3, E. coli β clamp (β subunit of DNA …); assay: SPR competition: peptide with β ring injected on immobilized P1
[16] = target: T3, E. coli β clamp (β subunit of DNA …); assay: as above; remark: listed apart in the source
[17] = target: T1, E. coli β clamp (β subunit of DNA …); assay: SPR competition on immobilised P1
[18] = target: T1, E. coli β clamp (β subunit of DNA …); assay: cell-based or functional assay
[19] = target: T3, E. coli β clamp (β subunit of DNA …); assay: SPR competition: peptide with β ring injected on immobilized P1; remark: listed apart in the source

Sequence of E. coli β clamp (β subunit of DNA polymerase III, dnaN gene product) (E. coli) (P0A988 whole entry): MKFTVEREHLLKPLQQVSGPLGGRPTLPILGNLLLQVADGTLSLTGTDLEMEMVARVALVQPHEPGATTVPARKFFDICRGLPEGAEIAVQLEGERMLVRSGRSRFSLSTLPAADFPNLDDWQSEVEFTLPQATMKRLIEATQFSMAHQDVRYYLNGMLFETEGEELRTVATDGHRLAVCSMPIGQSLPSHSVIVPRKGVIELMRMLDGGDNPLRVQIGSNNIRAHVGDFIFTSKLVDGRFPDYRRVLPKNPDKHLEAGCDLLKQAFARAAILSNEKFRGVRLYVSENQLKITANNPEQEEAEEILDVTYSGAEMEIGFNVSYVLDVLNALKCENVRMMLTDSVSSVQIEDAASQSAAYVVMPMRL
T1 sequence (P0A988 whole entry): as above
Sequence of E. coli β clamp (β subunit of DNA polymerase III, dnaN gene product), N-tagged (E. coli) (P0A988 whole entry): as above

P13 (Ac-Q Cha DL pBrF) (peptide)
IC50, Pol IV based biochemical assay (inhibition of β dependent Pol IV elongation) [1]: 250 nM | Kd [2]: 150 nM

P3 (RQLVLF) (peptide)
IC50, Pol IV based biochemical assay (inhibition of β dependent Pol IV elongation) [1]: 7000 nM

P17, Ac Q Cha D Cha F (peptide)
IC50 [3]: 310 nM

P14-8 (Ac R Q Cha K L F) (peptide; other documents disagree on this pair)
Ki [4]: 1000 nM | fold decrease in affinity against P14 [4]: 10 fold | Ki [5]: 904 nM | affinity ratio against P7 [6]: 50 fold

P19, Ac Q ChaD NptGly F (peptide)
IC50 [3]: 5630 nM

P14-7 (Ac R Q Cha R L F) (peptide)
affinity ratio against P7 [4]: > 50 fold | affinity ratio against P7 [6]: 5 fold

P12 (Ac-Q Cha DL pClF) (peptide)
IC50, Pol IV based biochemical assay (inhibition of β dependent Pol IV elongation) [1]: 300 nM | Kd [2]: 100 nM

P4 (RQLVFL) (peptide; other documents disagree on this pair)
IC50 [7]: 256000 nM

P20, Ac-Q Cha DL Cha (peptide)
IC50 [3]: 410 nM

P11 (Ac-Q Cha DL pMeF) (peptide)
IC50, Pol IV based biochemical assay (inhibition of β dependent Pol IV elongation) [1]: 2000 nM | Kd [2]: 380 nM

P18, Ac Q Cha D hCha F (peptide)
IC50 [3]: 720 nM

P23, Ac-QFDLF (peptide; other documents disagree on this pair)
IC50 [3]: 31600 nM

P2 (RQLVLL) (peptide; other documents disagree on this pair)
fold decrease in interaction against P1 [8]: 2 fold and 3 fold | ΔG [9]: -6.54 kcal/mol | IC50 [7]: 21500 nM

P14-5 (Cin R Q Cha N L diClF) (peptide; other documents disagree on this pair)
Ki [5]: 3250 nM

P21, Ac-Q Cha DLW (peptide; other documents disagree on this pair)
IC50 [3]: 640 nM

P22, Ac-Q Cha DL Atda (peptide)
IC50 [3]: 3720 nM

P16, Ac Q Cha D hLeu F (peptide)
IC50 [3]: 230 nM

B1: P5 (QLDLF) (peptide)
peptide: QLDLF
ΔG [10]: -6.87 kcal/mol

B2: P1, natural C-terminal heptapeptide of E. coli DNA polymerase IV (RQLVLGL) (peptide)
peptide: H-RQLVLGL-OH
notes: Free peptide in ITC; also called H-Arg-Gln-Leu-Val-Leu-Gly-Leu-OH
IC50 [11]: 8850 nM | Kd [12]: 1580 nM | ΔG [12]: -7.9 kcal/mol | ΔH [12]: -4.09 kcal/mol | ΔS [12]: 12.8 cal/mol/deg | Kd [13]: 2010 nM | ΔG [13]: -7.7 kcal/mol | ΔH [13]: -5.5 kcal/mol | ΔS [13]: 7.6 cal/mol/deg

B3: P6 (AcQLDLF) (peptide)
peptide: Ac-QLDLF-OH
notes: also called Ac-Gln-Leu-Asp-Leu-Phe-OH
Kd [12]: 820 nM | ΔH [12]: -11.3 kcal/mol | ΔS [12]: -10.4 cal/mol/deg | Kd [13]: 613 nM | ΔG [13]: -8.3 kcal/mol | ΔH [13]: -11.1 kcal/mol | ΔS [13]: -9.08 cal/mol/deg

B4: P1, H-Arg-Gln-Leu-Val-Leu-Gly-Leu-OH (peptide)
peptide: H-RQLVLGL-OH
notes: also called RQLVLGL; natural Cter heptamer of E. coli DNA polymerase IV
ΔG [14]: -7.06 kcal/mol | IC50 [15]: 8850 nM

B5: P13, Ac-Gln-Cha-Asp-Leu-pBrPhe-OH (peptide)
peptide: Ac-Q[Cha]DL[Phe(4-Br)]-OH
SMILES: CC(=O)N[C@@H](CCC(N)=O)C(=O)N[C@@H](CC1CCCCC1)C(=O)N[C@@H](CC(=O)O)C(=O)N[C@@H](CC(C)C)C(=O)N[C@@H](Cc1ccc(Br)cc1)C(=O)O
notes: X stands for Cha; the substituted phenylalanine is written F; also called Ac-Q Cha DL pBrF
ΔG [14]: -9.71 kcal/mol | IC50 [16]: 100 nM | IC50 [15]: 96 nM

B6: P6, Ac-Gln-Leu-Asp-Leu-Phe-OH (peptide)
peptide: Ac-QLDLF-OH
notes: also called AcQLDLF
ΔG [14]: -8.22 kcal/mol

B7: E. coli DNA polymerase IV (enzyme)
chain: MRKIIHVDMDCFFAAVEMRDNPALRDIPIAIGGSRERRGVISTANYPARKFGVRSAMPTGMALKLCPHLTLLPGRFDAYKEASNHIREIFSRYTSRIEPLSLDEAYLDVTDSVHCHGSATLIAQEIRQTIFNELQLTASAGVAPVKFLAKIASDMNKPNGQFVITPAEVPAFLQTLPLAKIPGVGKVSAAKLEAMGLRTCGDVQKCDLVMLLKRFGKFGRILWERSQGIDERDVNSERLRKSVGVERTMAEDIHHWSECEAIIERLYPELERRLAKVKPDLLIARQGVKLKFDDFQQTTQEHVWPRLNKADLIATARKTWDERRGGRGVRLVGLHVTLLDPQMERQLVLGL
notes: Called the whole polymerase / the full PolIV enzyme; construct and tags not described; also called PolIV; Pol IV
ΔG [10]: -9.09 kcal/mol

B8: E. coli DNA polymerase IV (enzyme)
chain: MRKIIHVDMDCFFAAVEMRDNPALRDIPIAIGGSRERRGVISTANYPARKFGVRSAMPTGMALKLCPHLTLLPGRFDAYKEASNHIREIFSRYTSRIEPLSLDEAYLDVTDSVHCHGSATLIAQEIRQTIFNELQLTASAGVAPVKFLAKIASDMNKPNGQFVITPAEVPAFLQTLPLAKIPGVGKVSAAKLEAMGLRTCGDVQKCDLVMLLKRFGKFGRILWERSQGIDERDVNSERLRKSVGVERTMAEDIHHWSECEAIIERLYPELERRLAKVKPDLLIARQGVKLKFDDFQQTTQEHVWPRLNKADLIATARKTWDERRGGRGVRLVGLHVTLLDPQMERQLVLGL
notes: also called PolIV; Pol IV
ΔG [14]: -9.09 kcal/mol

B9: P11, Ac-Gln-Cha-Asp-Leu-pMePhe-OH (peptide)
peptide: Ac-Q[Cha]DL[Phe(4-Me)]-OH
SMILES: CC(=O)N[C@@H](CCC(N)=O)C(=O)N[C@@H](CC1CCCCC1)C(=O)N[C@@H](CC(=O)O)C(=O)N[C@@H](CC(C)C)C(=O)N[C@@H](Cc1ccc(C)cc1)C(=O)O
notes: X stands for Cha; the substituted phenylalanine is written F; also called Ac-Q Cha DL pMeF
ΔG [14]: -9.44 kcal/mol | IC50 [16]: 260 nM | IC50 [15]: 260 nM

B10: P5, H-Gln-Leu-Asp-Leu-Phe-OH (peptide)
peptide: H-QLDLF-OH
notes: also called QLDLF
ΔG [14]: -6.87 kcal/mol

B11: P14, Ac-Gln-Cha-Asp-Leu-(3,4-di-Cl)Phe-OH (peptide)
peptide: Ac-Q[Cha]DL[Phe(3,4-Cl2)]-OH
SMILES: CC(=O)N[C@@H](CCC(N)=O)C(=O)N[C@@H](CC1CCCCC1)C(=O)N[C@@H](CC(=O)O)C(=O)N[C@@H](CC(C)C)C(=O)N[C@@H](Cc1ccc(Cl)c(Cl)c1)C(=O)O
notes: X stands for Cha; the substituted phenylalanine is written F; also called Ac-Q Cha DL diClF; Bu29
ΔG [14]: -9.85 kcal/mol | IC50 [16]: 72 nM | IC50 [15]: 77 nM

B12: P12, Ac-Gln-Cha-Asp-Leu-pClPhe-OH (peptide)
peptide: Ac-Q[Cha]DL[Phe(4-Cl)]-OH
SMILES: CC(=O)N[C@@H](CCC(N)=O)C(=O)N[C@@H](CC1CCCCC1)C(=O)N[C@@H](CC(=O)O)C(=O)N[C@@H](CC(C)C)C(=O)N[C@@H](Cc1ccc(Cl)cc1)C(=O)O
notes: X stands for Cha; the substituted phenylalanine is written F; also called Ac-Q Cha DL pClF
ΔG [14]: -9.73 kcal/mol | IC50 [16]: 160 nM | IC50 [15]: 160 nM

B13: P6 (AcQLDLF) (peptide)
peptide: Ac-QLDLF-OH
notes: as for B3
times tighter binding than P1 [17]: ~8 fold | IC50, Pol IV based biochemical assay (inhibition of β dependent Pol IV elongation) [18]: 4500 nM | ΔG [10]: -8.22 kcal/mol

B14: P8, Ac-Gln-hCha-Asp-Leu-Phe-OH (peptide)
peptide: Ac-Q[hCha]DLF-OH
SMILES: CC(=O)N[C@@H](CCC(N)=O)C(=O)N[C@@H](CCC1CCCCC1)C(=O)N[C@@H](CC(=O)O)C(=O)N[C@@H](CC(C)C)C(=O)N[C@@H](Cc1ccccc1)C(=O)O
notes: X stands for the non-natural residue; also called Ac Q hCha DLF
ΔG [14]: -5.74 kcal/mol | IC50 [19]: 82800 nM | IC50 [15]: 82800 nM
